Reference: patent US20240209058A1 (published 2024)
Blank lines part the entries; values can stand above or below the binder they belong to.

What was measured:
[1] = target: T1, human mesothelin (MSLN) peptide on HLA-A*02:01 (human); assay: multimer staining
T1 peptide: SLLFLLFSL

[2] = target: T2, human mesothelin (MSLN) peptide on HLA-A*02:01 (human); assay: multimer staining
T2 peptide: VLPLTVAEV

- binding result [1]: recognises
B1: MSLN20-28 clone 8 (TCR, V domains shown)
Valpha: AQSVTQLDSQVPVFEEAPVELRCNYSSSVSVYLFWYVQYPNQGLQLLLKYLSGSTLVKGINGFEAEFNKSQTSFHLRKPSVHISDTAEYFCAVIPNNNARLMFGDGTQLVVKP
Vbeta: ETGVTQTPRHLVMGMTNKKSLKCEQHLGHNAMYWYKQSAKKPLELMFVYNFKEQTENNSVPSRFSPECPNSSHLFLHLHTLQPEDSALYLCASGQGTEAFFGQGTRLTVV

- binding result [2]: recognises
B2: MSLN530-538 clone 5 (TCR, V domains shown)
Valpha: TQLLEQSPQFLSIQEGENLTVYCNSSSVFSSLQWYRQEPGEGPVLLVTVVTGGEVKKLKRLTFQFGDARKDSSLHITAAQTGDTGLYLCAGGMESGGGADGLTFGKGTHLIIQP
Vbeta: DTGVSQNPRHKITKRGQNVTFRCDPISEHNRLYWYRQTLGQGPEFLTYFQNEAQLEKSRLLSDRFSAERPKGSFSTLEIQRTEQGDSAMYLCASTSTGGLKNTEAFFGQGTRLTVV

- binding result [2]: recognises
B3: MSLN530-538 clone 4 (TCR, V domains shown)
Valpha: AQTVTQSQPEMSVQEAETVTLSCTYDTSESDYYLFWYKQPPSRQMILVIRQEAYKQQNATENRFSVNFQKAAKSFSLKISDSQLGDAAMYFCAYLGTGTYKYIFGTGTRLKVLA
Vbeta: EAQVTQNPRYLITVTGKKLTVTCSQNMNHEYMSWYRQDPGLGLRQIYYSMNVEVTDKGDVPEGYKVSRKEKRNFPLILESPSPNQTSLYFCASSSGGLGYTFGSGTRLTVV

- binding result [1]: recognises
B4: MSLN20-28 clone 2 (TCR, V domains shown)
Valpha: DQQVKQNSPSLSVQEGRISILNCDYTNSMFDYFLWYKKYPAEGPTFLISISSIKDKNEDGRFTVFLNKSAKHLSLHIVPSQPGDSAVYFCAASGNTDKLIFGTGTRLQVFP
Vbeta: EPEVTQTPSHQVTQMGQEVILRCVPISNHLYFYWYRQILGQKVEFLVSFYNNEISEKSEIFDDQFSVERPDGSNFTLKIRSTKLEDSAMYFCASRPGWSYEQYFGPGTRLTVT

- binding result [1]: recognises
B5: MSLN20-28 clone 7 (TCR, V domains shown)
Valpha: ILNVEQSPQSLHVQEGDSTNFTCSFPSSNFYALHWYRWETAKSPEALFVMTLNGDEKKKGRISATLNTKEGYSYLYIKGSQPEDSATYLCAFYMDSNYQLIWGAGTKLIIKP
Vbeta: NAGVTQTPKFQVLKTGQSMTLQCAQDMNHNSMYWYRQDPGMGLRLIYYSASEGTTDKGEVPNGYNVSRLNKREFSLRLESAAPSQTSVYFCASSEWTAEQYFGPGTRLTVT
